Data taken from patent publication US20050136043A1, “TGFbeta signaling inhibitors” (Ludwig Institute for Cancer Research, priority 2003, published 2005).

What was measured:
Type in all cases: biochemical
ALK-7 = biological target: T1, ALK-7 (Homo sapiens, UniProt Q8NER5); experiment: In vitro kinase assay (autophosphorylation) of receptor expressed in COS-7 cells; details: 10 μM peptide, FIG. 5
T1 construct: made in house; host or cells: COS-7 cells (transfected, immunoprecipitated)
T1 sequence (Q8NER5 21-493): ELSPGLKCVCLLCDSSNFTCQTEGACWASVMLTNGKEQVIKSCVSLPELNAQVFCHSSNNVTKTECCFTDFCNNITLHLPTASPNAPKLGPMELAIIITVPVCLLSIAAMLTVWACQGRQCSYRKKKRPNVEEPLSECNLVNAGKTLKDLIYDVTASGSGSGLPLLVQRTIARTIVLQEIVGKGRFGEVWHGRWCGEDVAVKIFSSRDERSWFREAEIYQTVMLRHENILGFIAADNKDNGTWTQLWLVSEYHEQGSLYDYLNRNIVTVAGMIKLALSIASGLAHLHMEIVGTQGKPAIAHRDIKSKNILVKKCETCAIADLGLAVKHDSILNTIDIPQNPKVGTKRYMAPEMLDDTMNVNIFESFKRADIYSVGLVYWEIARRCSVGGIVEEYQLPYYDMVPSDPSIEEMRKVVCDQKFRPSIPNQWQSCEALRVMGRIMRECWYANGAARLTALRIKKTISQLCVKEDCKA
Protocol: (§1) For in vitro kinase assay of type I and type II TGFβ family receptors, p38α and SAPKα2 kinases, COS-7 cells were transfected with the kinase expression vectors or the control empty pcDNA3 vector using the DEAE-dextran method. Proteins were extracted in a lysis buffer (50 mM Tris-HCl, pH 7.5, 50 mM NaCl, 1% NP-40, 10 μg/mL aprotinin, 0.1 mM PMSF). HA-tagged proteins (ALK1 to ALK7, p38R, SAPKR2) were immunoprecipitated with anti-HA antibody (12CA5; Roche); His6-tagged proteins (type II receptors) were precipitated with Ni-NTA agarose (Qiagen). The precipitates were washed in extraction buffer, with 20 mM imidazole for Ni-NTA agarose-precipitated proteins, and two times with kinase buffer (20 mM HEPES, pH 7.4, 10 mM MgCl2, 2 mM MnCl2, 1 mM DTT). The kinase reaction was initiated by addition of 20 μL of kinase buffer containing 0.5 μCi of [γ-32P]ATP, 5.0 μM ATP, and inhibitory peptides at a final concentration of 10 μM. The reaction was performed at 22° C. for 20 min and terminated by addition of SDS-containing sample buffer and boiling for 5 min. The reaction products were analyzed by SDS-PAGE and exposure in a Fuji X2000 phosphorimager. Equal loading was controlled by immunoblotting aliquots of the samples with a HA probe (Y-11; Santa Cruz) or anti-His antibody (Qiagen).
(§2) To evaluate whether the substrate-mimicking peptides affect kinases of type I and type II reptors of the TGFβ family, we studied the influence of peptides on authophosphorylation of all known mammalian type I receptors [ALK-1, ActR-I (ALK-2), BMPR-IA (ALK-3), ActR-IB (ALK-4), TβR-I (ALK-5), BMPR-IB (ALK-6), and ALK-7], TβRII, ActR-II, BMPR-II, p38R, and SAPKR2 (FIG. 5). The kinases were expressed in COS-7 cells and purified by using specific anti-tag antibodies or Ni-NTA agarose, and kinase activity was tested in the presence of peptides.

ActR-IB (ALK-4) = biological target: T2, ActR-IB (ALK-4) (Homo sapiens, UniProt P36896); experiment: as above; details: 10 μM peptide, FIG. 5
T2 construct: made in house; host or cells: COS-7 cells (transfected, immunoprecipitated)
T2 sequence (P36896 24-505): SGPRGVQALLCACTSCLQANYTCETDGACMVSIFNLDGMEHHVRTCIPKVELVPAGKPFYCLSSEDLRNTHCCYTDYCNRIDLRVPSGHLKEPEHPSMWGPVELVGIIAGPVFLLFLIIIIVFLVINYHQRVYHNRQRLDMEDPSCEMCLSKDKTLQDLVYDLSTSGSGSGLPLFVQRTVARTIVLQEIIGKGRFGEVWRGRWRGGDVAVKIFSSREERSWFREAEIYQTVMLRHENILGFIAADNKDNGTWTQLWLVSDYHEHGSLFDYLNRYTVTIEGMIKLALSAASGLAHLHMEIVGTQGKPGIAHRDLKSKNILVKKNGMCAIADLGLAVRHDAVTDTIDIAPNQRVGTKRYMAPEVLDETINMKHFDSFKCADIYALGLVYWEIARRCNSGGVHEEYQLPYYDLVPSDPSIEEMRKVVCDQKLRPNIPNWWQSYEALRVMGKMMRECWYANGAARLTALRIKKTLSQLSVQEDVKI
Protocol: as §1, §2

BMPR-IA (ALK-3) = biological target: T3, BMPR-IA (ALK-3) (Homo sapiens, UniProt P36894); experiment: as above; details: 10 μM peptide, FIG. 5
T3 construct: made in house; host or cells: COS-7 cells (transfected, immunoprecipitated)
Protocol: as §1, §2

[1] = biological target: T4, constitutively active TβR-I (Homo sapiens, UniProt P36897, T204D); experiment: In vitro kinase assay with immunoprecipitated constitutively active TβR-I expressed in Mv1Lu cells; details: immunoprecipitated from Mv1Lu cells, data not shown
T4 construct: made in house; host or cells: Mv1Lu cells (expressed, immunoprecipitated)
T4 sequence (P36897 34-503 T204D): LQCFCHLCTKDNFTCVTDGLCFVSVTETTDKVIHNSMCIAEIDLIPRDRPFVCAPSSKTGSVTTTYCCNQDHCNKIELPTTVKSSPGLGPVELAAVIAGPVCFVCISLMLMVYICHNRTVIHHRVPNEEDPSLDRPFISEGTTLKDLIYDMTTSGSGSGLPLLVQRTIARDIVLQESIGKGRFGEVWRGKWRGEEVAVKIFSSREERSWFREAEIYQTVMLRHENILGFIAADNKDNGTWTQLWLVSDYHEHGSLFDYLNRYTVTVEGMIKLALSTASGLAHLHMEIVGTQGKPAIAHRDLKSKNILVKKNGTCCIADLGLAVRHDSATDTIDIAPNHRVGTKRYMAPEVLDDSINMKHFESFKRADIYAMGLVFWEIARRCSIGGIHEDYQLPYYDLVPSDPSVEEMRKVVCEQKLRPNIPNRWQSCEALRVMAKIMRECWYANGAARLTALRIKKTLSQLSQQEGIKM

T3 sequence (P36894 24-532, species assumed): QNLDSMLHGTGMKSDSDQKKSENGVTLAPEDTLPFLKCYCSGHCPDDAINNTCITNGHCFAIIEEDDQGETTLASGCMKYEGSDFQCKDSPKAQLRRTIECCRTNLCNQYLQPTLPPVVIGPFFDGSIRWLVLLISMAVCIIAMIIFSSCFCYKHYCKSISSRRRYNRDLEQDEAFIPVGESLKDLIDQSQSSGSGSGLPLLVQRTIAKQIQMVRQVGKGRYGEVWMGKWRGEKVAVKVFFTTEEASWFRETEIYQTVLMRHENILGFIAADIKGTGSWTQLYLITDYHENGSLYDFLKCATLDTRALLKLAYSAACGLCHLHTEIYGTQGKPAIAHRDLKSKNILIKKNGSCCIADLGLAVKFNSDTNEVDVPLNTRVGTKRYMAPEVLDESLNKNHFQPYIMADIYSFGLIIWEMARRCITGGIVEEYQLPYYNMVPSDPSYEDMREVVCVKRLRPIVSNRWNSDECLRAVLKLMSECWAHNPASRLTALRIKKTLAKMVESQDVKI

| Effect on ALK-7 kinase (ALK-7) | Effect on ActR-IB (ALK-4) kinase (ActR-IB (ALK-4)) | Effect on BMPR-IA (ALK-3) kinase (BMPR-IA (ALK-3)) | Inhibition of autophosphorylation of TβR-I [1] | Sequence |
| --- | --- | --- | --- | --- |
| without any effect | without any effect | without any effect | inhibited autophosphorylation | RQIKIWFQNRRMKWKKTQMGSPSVRCSSMS (listed as Homo sapiens) [antp-Sm2S, penetratin fused to the C-terminus of wild-type Smad2] |
| without any effect | without any effect | without any effect | inhibited autophosphorylation | RQIKIWFQNRRMKWKKTQMGSPSVRCSAMA (listed as Homo sapiens) [antp-Sm2A] |
